± gives the standard deviation of the averaged measurements.
Assay: total protein half-life in vivo (active degradation + dilution); higher = more stable protein
[1] = wild type E. coli NCM3722, growth: C-lim chemostat, doubling time 3 h
[2] = E. coli NCM3722 delta-clpP delta-lon delta-hslV, growth: N-lim chemostat, doubling time 6 h
[3] = E. coli NCM3722 delta-clpP, growth: N-lim chemostat, doubling time 6 h
[4] = E. coli NCM3722 delta-hslV, growth: N-lim chemostat, doubling time 6 h
[5] = E. coli NCM3722 delta-lon, growth: N-lim chemostat, doubling time 6 h
[6] = E. coli NCM3722 delta-smpB, growth: N-lim chemostat, doubling time 6 h
[7] = wild type E. coli NCM3722, growth: C-lim chemostat, doubling time 6 h
[8] = wild type E. coli NCM3722, growth: C-lim chemostat, doubling time 12 h
[9] = wild type E. coli NCM3722, growth: N-lim chemostat, doubling time 6 h
[10] = wild type E. coli NCM3722, growth: N-lim chemostat, doubling time 12 h
[11] = wild type E. coli NCM3722, growth: P-lim chemostat, doubling time 6 h
[12] = wild type E. coli NCM3722, growth: P-lim chemostat, doubling time 12 h

## MSHNVTPNTSRVELRKTLTLVPVVMMGLAYMQPMTLFDTFGIVSGLTDGHVPTAYAFALIAILFTALSYGKLVRRYPSAGSAYTYAQKSISPTVGFMVGWSSLLDYLFAPMINILLAKIYFEALVPSIPSWMFVVALVAFMTAFNLRSLKSVANFNTVIVVLQVVLIAVILGMVVYGVFEGEGAGTLASTRPFWSGDAHVIPMITGATILCFSFTGFDGISNLSEETKDAERVIPRAIFLTALIGGMIFIFATYFLQLYFPDISRFKDPDASQPEIMLYVAGKAFQVGALIFSTITVLASGMAAHAGVARLMYVMGRDGVFPKSFFGYVHPKWRTPAMNIILVGAIALLAINFDLVMATALINFGALVAFTFVNLSVISQFWIREKRNKTLKDHFQYLFLPMCGALTVGALWVNLEESSMVLGLIWAAIGLIYLACVTKSFRNPVPQYEDVA [P0AA47]
[1]
  total protein half-life in vivo: 0.699 ± 0.063 h

## MSHPALTQLRALRYCKEIPALDPQLLDWLLLEDSMTKRFEQQGKTVSVTMIREGFVEQNEIPEELPLLPKESRYWLREILLCADGEPWLAGRTVVPVSTLSGPELALQKLGKTPLGRYLFTSSTLTRDFIEIGRDAGLWGRRSRLRLSGKPLLLTELFLPASPLY
[2]
  total protein half-life in vivo: 4.9 ± 0.4 h
[3]
  total protein half-life in vivo: 2.28 ± 0.017 h
[4]
  total protein half-life in vivo: 3.04 ± 0.035 h
[5]
  total protein half-life in vivo: 3.5 ± 0.31 h
[6]
  total protein half-life in vivo: 2.14 ± 0.061 h
[1]
  total protein half-life in vivo: 2.41 ± 0.13 h
[7]
  total protein half-life in vivo: 4.27 ± 0.27 h
[8]
  total protein half-life in vivo: 7.06 ± 0.53 h
[9]
  total protein half-life in vivo: 3.15 ± 0.3 h
[10]
  total protein half-life in vivo: 4.66 ± 0.034 h
[11]
  total protein half-life in vivo: 4.77 ± 0.55 h
[12]
  total protein half-life in vivo: 8.85 ± 0.47 h

## MSHQKIIQDLIAWIDEHIDQPLNIDVVAKKSGYSKWYLQRMFRTVTHQTLGDYIRQRRLLLAAVELRTTERPIFDIAMDLGYVSQQTFSRVFRRQFDRTPSDYRHRL [P0A9E2]
[2]
  total protein half-life in vivo: 6.13 ± 1.3 h

## MSHRDTLFSAPIARLGDWTFDERVAEVFPDMIQRSVPGYSNIISMIGMLAERFVQPGTQVYDLGCSLGAATLSVRRNIHHDNCKIIAIDNSPAMIERCRRHIDAYKAPTPVDVIEGDIRDIAIENASMVVLNFTLQFLEPSERQALLDKIYQGLNPGGALVLSEKFSFEDAKVGELLFNMHHDFKRANGYSELEISQKRSMLENVMLTDSVETHKARLHNAGFEHSELWFQCFNFGSLVALKAEDAA
[2]
  total protein half-life in vivo: 4.36 ± 0.1 h
[3]
  total protein half-life in vivo: 4.266 ± 0.023 h
[4]
  total protein half-life in vivo: 3.422 ± 0.01 h
[5]
  total protein half-life in vivo: 4.69 ± 0.25 h
[6]
  total protein half-life in vivo: 3.28 ± 0.41 h
[1]
  total protein half-life in vivo: 2.85 ± 0.079 h
[7]
  total protein half-life in vivo: 4.75 ± 0.061 h
[8]
  total protein half-life in vivo: 6.64 ± 0.99 h
[9]
  total protein half-life in vivo: 3.17 ± 0.74 h
[10]
  total protein half-life in vivo: 4.86 ± 0.5 h
[11]
  total protein half-life in vivo: 4.66 ± 0.48 h
[12]
  total protein half-life in vivo: 9.24 ± 0.053 h

## MSHTIRDKQKLKARASKIQGQVVALKKMLDEPHECAAVLQQIAAIRGAVNGLMREVIKGHLTEHIVHQGDELKREEDLDVVLKVLDSYIK
[2]
  total protein half-life in vivo: 7.38 ± 0.4 h
[3]
  total protein half-life in vivo: 7.02 ± 0.26 h
[5]
  total protein half-life in vivo: 6.29 ± 0.15 h
[1]
  total protein half-life in vivo: > 4 h
[7]
  total protein half-life in vivo: 7.3 ± 0.65 h
[8]
  total protein half-life in vivo: 10.8 h
[9]
  total protein half-life in vivo: 5.53 ± 0.39 h
[10]
  total protein half-life in vivo: 11.2 h
[11]
  total protein half-life in vivo: 4.14 ± 1.8 h
[12]
  total protein half-life in vivo: 11.9 ± 0.86 h

## MSIDRTSPLKPVSTVQPRETTDAPVTNSRAAKTTASTSTSVTLSDAQAKLMQPGSSDINLERVEALKLAIRNGELKMDTGKIADALINEAQQDLQSN [P0AEM4]
[1]
  total protein half-life in vivo: 0.693 ± 0.42 h
[7]
  total protein half-life in vivo: 0.442 h
[8]
  total protein half-life in vivo: 0.862 ± 0.19 h

## MSIDWNWGIFLQQAPFGNTTYLGWIWSGFQVTIALSICAWIIAFLVGSFFGILRTVPNRFLSGLGTLYVELFRNVPLIVQFFTWYLVIPELLPEKIGMWFKAELDPNIQFFLSSMLCLGLFTAARVCEQVRAAIQSLPRGQKNAALAMGLTLPQAYRYVLLPNAYRVIVPPMTSEMMNLVKNSAIASTIGLVDMAAQAGKLLDYSAHAWESFTAITLAYVLINAFIMLVMTLVERKVRLPGNMGGK [P0AER3]
[2]
  total protein half-life in vivo: 6.3 ± 0.68 h
[3]
  total protein half-life in vivo: 5.73 ± 0.57 h
[4]
  total protein half-life in vivo: 7.02 ± 1.3 h
[5]
  total protein half-life in vivo: 6.414 ± 0.029 h
[6]
  total protein half-life in vivo: 5.64 ± 0.34 h
[1]
  total protein half-life in vivo: 3.1 ± 0.078 h
[7]
  total protein half-life in vivo: 5.71 ± 1.4 h
[8]
  total protein half-life in vivo: 12.4 h
[9]
  total protein half-life in vivo: 5.35 ± 0.4 h
[10]
  total protein half-life in vivo: 12.1 ± 4.6 h
[11]
  total protein half-life in vivo: 6.73 h
[12]
  total protein half-life in vivo: 12.4 ± 1.9 h

— the supplement of paper PMC11246515
